The results in this text go back to paper PMC5798601 (Cell, 2017).

In data set [1] the target is 32P-labeled mtRNAP (Figure 5C; truncation not stated) (human) (UniProt O00411). Description: cross-linking.
The next data set addresses 610Bpa-mtRNAP (human) (UniProt O00411). Description: cross-linking.
The data set “SEC” deals with the molecule itself. Description: SEC.
The target of data set [2] is Δ150 mtRNAP (human mitochondrial RNA polymerase) (human, UniProt O00411 151-1230). Briefly: crystal structure.
Chain of Δ150 mtRNAP (human mitochondrial RNA polymerase) (O00411 151-1230, stated change not applied): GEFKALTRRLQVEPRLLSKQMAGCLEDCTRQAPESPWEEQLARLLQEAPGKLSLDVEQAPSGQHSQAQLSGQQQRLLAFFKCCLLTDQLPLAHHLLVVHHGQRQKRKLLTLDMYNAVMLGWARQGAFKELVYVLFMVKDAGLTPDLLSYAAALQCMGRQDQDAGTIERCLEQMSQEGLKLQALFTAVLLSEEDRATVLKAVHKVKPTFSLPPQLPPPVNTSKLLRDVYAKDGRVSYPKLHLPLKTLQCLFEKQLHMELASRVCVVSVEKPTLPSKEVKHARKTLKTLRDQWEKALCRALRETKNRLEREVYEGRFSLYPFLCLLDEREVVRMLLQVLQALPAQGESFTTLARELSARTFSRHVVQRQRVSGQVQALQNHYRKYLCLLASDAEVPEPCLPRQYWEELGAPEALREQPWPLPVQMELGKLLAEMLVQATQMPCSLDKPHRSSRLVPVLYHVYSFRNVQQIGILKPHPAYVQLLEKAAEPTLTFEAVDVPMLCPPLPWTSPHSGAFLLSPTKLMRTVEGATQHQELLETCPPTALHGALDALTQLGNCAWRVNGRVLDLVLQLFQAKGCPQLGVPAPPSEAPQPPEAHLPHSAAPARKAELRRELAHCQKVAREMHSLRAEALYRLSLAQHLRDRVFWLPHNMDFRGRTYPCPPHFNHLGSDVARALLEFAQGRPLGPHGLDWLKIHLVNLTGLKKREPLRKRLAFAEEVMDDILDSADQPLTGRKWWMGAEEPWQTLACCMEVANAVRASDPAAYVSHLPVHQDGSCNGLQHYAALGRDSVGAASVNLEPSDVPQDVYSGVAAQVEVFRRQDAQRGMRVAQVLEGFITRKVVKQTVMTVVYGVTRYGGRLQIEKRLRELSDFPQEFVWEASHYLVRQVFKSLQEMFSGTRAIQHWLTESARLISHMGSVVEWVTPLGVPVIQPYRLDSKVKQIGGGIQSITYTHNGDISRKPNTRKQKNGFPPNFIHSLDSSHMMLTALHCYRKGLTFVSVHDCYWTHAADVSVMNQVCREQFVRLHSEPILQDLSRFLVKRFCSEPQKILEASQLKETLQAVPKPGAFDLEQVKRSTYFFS
The data set “crystal structure” deals with the molecule itself. Description: crystal structure.
Data set [3] has as its target mtRNAP Δ150;TEFM Δ135 (CTD + linker) (human;human, UniProt O00411;Q96QE5 151-1230;136-360, |). Briefly: crystal structure.
Another data set deals with mtRNAP Δ150;TEFM WT (human;human, UniProt O00411;Q96QE5 151-1230;36-360, |). Briefly: size exclusion chromatography.
Chain of mtRNAP Δ150;TEFM WT (O00411 151-1230, stated change not applied, one chain of several): as the sequence (O00411 151-1230, stated change not applied) above

Chain of 32P-labeled mtRNAP (Figure 5C; truncation not stated) (human) (O00411 42-1230): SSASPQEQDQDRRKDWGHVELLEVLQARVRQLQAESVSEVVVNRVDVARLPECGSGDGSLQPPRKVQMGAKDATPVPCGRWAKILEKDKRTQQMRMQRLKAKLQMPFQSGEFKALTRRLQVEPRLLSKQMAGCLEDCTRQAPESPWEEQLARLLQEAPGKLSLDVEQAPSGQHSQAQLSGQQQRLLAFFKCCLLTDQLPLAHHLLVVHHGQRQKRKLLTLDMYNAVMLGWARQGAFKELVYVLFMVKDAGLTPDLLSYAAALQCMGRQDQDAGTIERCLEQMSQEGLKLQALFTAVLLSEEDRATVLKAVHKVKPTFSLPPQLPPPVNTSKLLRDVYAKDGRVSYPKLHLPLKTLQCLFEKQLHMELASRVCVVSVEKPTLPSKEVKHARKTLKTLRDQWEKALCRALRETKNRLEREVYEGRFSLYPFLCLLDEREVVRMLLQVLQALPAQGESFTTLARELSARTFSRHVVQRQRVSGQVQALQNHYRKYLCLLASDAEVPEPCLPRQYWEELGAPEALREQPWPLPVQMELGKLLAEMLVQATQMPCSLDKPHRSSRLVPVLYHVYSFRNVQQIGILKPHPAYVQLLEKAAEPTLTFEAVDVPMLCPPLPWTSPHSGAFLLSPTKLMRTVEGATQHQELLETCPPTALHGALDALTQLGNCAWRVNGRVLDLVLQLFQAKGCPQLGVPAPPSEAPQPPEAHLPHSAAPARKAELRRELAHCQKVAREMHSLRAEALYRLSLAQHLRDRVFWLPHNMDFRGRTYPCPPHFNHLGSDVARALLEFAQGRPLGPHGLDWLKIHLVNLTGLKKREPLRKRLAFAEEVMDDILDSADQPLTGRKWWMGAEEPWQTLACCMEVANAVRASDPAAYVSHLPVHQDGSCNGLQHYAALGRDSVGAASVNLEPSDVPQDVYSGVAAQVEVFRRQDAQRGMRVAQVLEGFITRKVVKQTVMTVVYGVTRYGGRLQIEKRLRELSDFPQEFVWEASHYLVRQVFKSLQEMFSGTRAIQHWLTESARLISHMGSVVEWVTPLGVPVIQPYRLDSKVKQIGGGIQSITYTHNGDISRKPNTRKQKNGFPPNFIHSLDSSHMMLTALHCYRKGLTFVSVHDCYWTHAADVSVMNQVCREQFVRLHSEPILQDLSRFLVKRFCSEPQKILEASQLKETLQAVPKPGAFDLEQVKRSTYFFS
Chain of 610Bpa-mtRNAP (human) (O00411 42-609): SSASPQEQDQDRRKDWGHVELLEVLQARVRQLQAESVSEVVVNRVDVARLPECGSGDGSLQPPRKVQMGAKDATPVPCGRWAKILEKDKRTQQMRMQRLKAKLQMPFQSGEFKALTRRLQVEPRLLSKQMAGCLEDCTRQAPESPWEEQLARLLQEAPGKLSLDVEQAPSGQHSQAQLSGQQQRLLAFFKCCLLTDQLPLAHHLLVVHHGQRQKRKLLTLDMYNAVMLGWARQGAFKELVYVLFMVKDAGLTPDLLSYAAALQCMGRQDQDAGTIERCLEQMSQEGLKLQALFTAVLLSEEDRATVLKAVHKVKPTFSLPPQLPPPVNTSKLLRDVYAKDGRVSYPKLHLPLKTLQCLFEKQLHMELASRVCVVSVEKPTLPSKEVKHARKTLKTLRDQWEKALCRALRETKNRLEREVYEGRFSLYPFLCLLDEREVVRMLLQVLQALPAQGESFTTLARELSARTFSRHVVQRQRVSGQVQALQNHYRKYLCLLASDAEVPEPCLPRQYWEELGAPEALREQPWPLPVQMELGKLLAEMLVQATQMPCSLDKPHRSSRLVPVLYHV
Chain of mtRNAP Δ150;TEFM Δ135 (CTD + linker) (O00411 151-1230, stated change not applied, one chain of several): as the sequence (O00411 151-1230, stated change not applied) above

With “Bpa309 TEFM (from UniProt Q96QE5 36-360) (natural protein)”, the cross-linking efficiency in data set [1] is above 30%.
In turn, “Bpa308 TEFM (from UniProt Q96QE5 36-360) (natural protein)” registered a cross-linking efficiency in data set [1] above 30%.
The molecule “Bpa312 TEFM (from UniProt Q96QE5 36-360) (natural protein)” returned a cross-linking efficiency in data set [1] above 30%.
For “Bpa310 TEFM (from UniProt Q96QE5 36-360) (natural protein)”, the cross-linking efficiency in data set [1] is above 30%.

B1: 32P-labeled TEFM (natural protein)
chain: KSTTPKKITPNVTFCDENAKEPENALDKLFSSEQQASILHVLNTASTKELEAFRLLRGRRSINIVEHRENFGPFQNLESLMNVPLFKYKSTVQVCNSILCPKTGREKRKSPENRFLRKLLKPDIERERLKAVNSIISIVFGTRRIAWAHLDRKLTVLDWQQSDRWSLMRGIYSSSVYLEEISSIISKMPKADFYVLEKTGLSIQNSSLFPILLHFHIMEAMLYALLNKTFAQDGQHQVLSMNRNAVGKHFELMIGDSRTSGKELVKQFLFDSILKADPRVFFPSDKIVHYRQMFLSTELQRVEELYDSLLQAIAFYELAVFDSQP
modifications: 32P-labeled
In turn, B1 registered a cross-linking efficiency with 610Bpa-mtRNAP (human) of 30%.

B2: WT TEFM (human mitochondrial transcription elongation factor) (natural protein, UniProt Q96QE5 36-360, looked up)
chain: KSTTPKKITPNVTFCDENAKEPENALDKLFSSEQQASILHVLNTASTKELEAFRLLRGRRSINIVEHRENFGPFQNLESLMNVPLFKYKSTVQVCNSILCPKTGREKRKSPENRFLRKLLKPDIERERLKAVNSIISIVFGTRRIAWAHLDRKLTVLDWQQSDRWSLMRGIYSSSVYLEEISSIISKMPKADFYVLEKTGLSIQNSSLFPILLHFHIMEAMLYALLNKTFAQDGQHQVLSMNRNAVGKHFELMIGDSRTSGKELVKQFLFDSILKADPRVFFPSDKIVHYRQMFLSTELQRVEELYDSLLQAIAFYELAVFDSQP
As for B2, the “stoichiometry N” value in “SEC” came out at 2.

B3: Δ135 TEFM (CTD with the inter-domain linker, residues 136-360) (domain or fragment, human, UniProt Q96QE5 136-360, looked up)
chain: PKTGREKRKSPENRFLRKLLKPDIERERLKAVNSIISIVFGTRRIAWAHLDRKLTVLDWQQSDRWSLMRGIYSSSVYLEEISSIISKMPKADFYVLEKTGLSIQNSSLFPILLHFHIMEAMLYALLNKTFAQDGQHQVLSMNRNAVGKHFELMIGDSRTSGKELVKQFLFDSILKADPRVFFPSDKIVHYRQMFLSTELQRVEELYDSLLQAIAFYELAVFDSQP
B3: the binding result (in data set [2]; in “crystal structure”) was “binds” throughout.

B4: EC scaffold NT25HH/TS22HH/RNA14mt (mixed)
DNA 1: GAACATGGTGTAATTATTTCGACGCCAGACGAAC
DNA 2: GTTCGTCTGGCGTGCGCGCCGCTACACCATGTTC
RNA: AGUCUGCGGCGCGC
B4: in data set [3], the binding result is on record as “binds”.

B5: cross-linking scaffold NT19HH/TS16HH/RNA14HH (mixed)
DNA 1: CATGGGGTAACTAGTTCGACGCCAGACG
DNA 2: CGTCTGGCGTGATCACGACTACCCCATG
RNA: UGAUGGUAAUGCUCCUGUCGUGAUC
Regarding B5, in the data set with mtRNAP Δ150;TEFM WT, the binding result was “binds”.
